Measured values from paper PMC7109055.

Legend:
[1] = target: His6-VanSSC (full-length VanS sensor histidine kinase from Streptomyces coelicolor) (Streptomyces coelicolor) (UniProt Q9X942); test: SEC; analytical gel filtration on Superose 12 10/300; 20 mM HEPES pH 7.8, 200 mM NaCl (legend: 300 mM NaCl), 0.075% DPC; elution volume compared with protein standards
[2] = target: His6-VanSSC (full-length VanS sensor histidine kinase from Streptomyces coelicolor) (Streptomyces coelicolor) (UniProt Q9X942); test: native gel or EMSA

## His6-VanSSC (full-length VanS sensor histidine kinase from Streptomyces coelicolor) (from UniProt Q9X942 1-364) (enzyme)
[1]
  stoichiometry N: 2
[2]
  stoichiometry N: 2
